Key:
[1] = biological target: T1, human LGR5 (leucine-rich repeat containing G-protein-coupled receptor 5) (human, UniProt O75473 22-561); experiment: cell-based or functional assay
T1 sequence: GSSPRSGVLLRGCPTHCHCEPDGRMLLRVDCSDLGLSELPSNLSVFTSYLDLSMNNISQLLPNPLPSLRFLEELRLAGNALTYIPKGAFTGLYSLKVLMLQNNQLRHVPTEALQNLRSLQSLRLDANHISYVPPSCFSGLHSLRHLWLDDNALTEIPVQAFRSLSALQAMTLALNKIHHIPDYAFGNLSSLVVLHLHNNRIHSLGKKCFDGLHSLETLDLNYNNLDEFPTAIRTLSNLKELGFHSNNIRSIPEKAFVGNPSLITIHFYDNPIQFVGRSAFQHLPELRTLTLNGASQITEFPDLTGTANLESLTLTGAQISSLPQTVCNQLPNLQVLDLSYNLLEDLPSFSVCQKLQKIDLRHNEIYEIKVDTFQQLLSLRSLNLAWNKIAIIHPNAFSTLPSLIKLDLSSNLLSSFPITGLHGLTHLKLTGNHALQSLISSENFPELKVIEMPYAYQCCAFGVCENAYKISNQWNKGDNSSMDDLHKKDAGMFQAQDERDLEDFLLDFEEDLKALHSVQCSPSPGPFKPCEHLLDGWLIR

[2] = biological target: T1, human LGR5 (leucine-rich repeat …); experiment: FACS on CHO cells expressing recombinant LGR5

B1: 18G7Ch (antibody, human IgG1, kappa, V domains shown)
VH: QVQLQQSGAELVKPGASVKISCKATGYTFSGYWIEWVKQRPGHGLEWIGEILPGSDSTNYNEKFKGKATFTADTSSNTVYMQFSSLTSEDSAVYYCARSGYYGSSQYWGQGTTLTVSS
VL: NIVLTQSPASLAVSLGQRATISCRASESVDSYGNSFMHWYQQKPGQPPKLLIYLTSNLESGVPARFSGSGSRTDFTLTIDPVEADDAATYYCQQNNEDPRTFGGGTKLEIKR
- IC50 (nM) of cell viability, MTS assay, primary antibody + secondary ADC (NL-MMAF) [1]: 0.115 nM

B2: 18G7H6A1 (antibody, human IgG1, kappa, V domains shown)
VH: EVQLVQSGAEVKKPGESLRISCKGSGYSFTAYWIEWVRQAPGKGLEWIGEILPGSDSTNYNEKFKGHVTISADKSISTAYLQWSSLKASDTAVYYCARSGYYGSSQYWGQGTLVTVSS
VL: DIVLTQSPASLAVSPGQRATITCRASESVDSYGNSFMHWYQQKPGQPPKLLIYLTSNLESGVPDRFSGSGSGTDFTLTINPVEANDAATYYCQQNAEDPRTFGGGTKLEIKR
- EC50 [2]: < 10 nM

Reference: patent US20200114017A1 (BIONOMICS, published 2020)
